Data on nine molecules can be found in patent US20200283508A1 (TEXAS A AND M UNIVERSITY SYSTEM, published 2020).

The target in assay [1] is T1, Coa-C (Coa 311-636) (Staphylococcus aureus strain Newman, UniProt P08515 1-218 = GST).
The target in assay [2] is T2, Coa-F (Coa 311-505) (Staphylococcus aureus strain Newman, UniProt P08515 1-218 = GST).
The target of assay [3] is T3, Coa-R0474-505 (recombinant protein) (Staphylococcus aureus strain Newman).
T3 chain: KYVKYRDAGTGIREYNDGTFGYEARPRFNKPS

The target in assay [4] is T4, Efb-N30-105 (Staphylococcus aureus strain Newman, UniProt A6QG59 30-105).
T4 sequence: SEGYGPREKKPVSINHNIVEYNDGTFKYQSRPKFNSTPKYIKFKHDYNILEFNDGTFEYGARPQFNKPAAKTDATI

Assay [5] addresses T5, recombinant Efb-O (Efb 68-98) (Staphylococcus aureus strain Newman, UniProt P08515 1-218 = GST).
The target in assay [6] is Coa-R (Coa 506-636) (Staphylococcus aureus strain Newman). The assay can be described thus: ELISA, antigen coated 200 ng/well, scFv-Fc at 0.5 µg/ml. (In general: An ELISA detects its analyte on a solid surface through an enzyme-linked reagent.)
Assay [7] deals with T1, Coa-C (Coa 311-636). In words: apparent Kd from half-maximal binding in ELISA (GraphPad Prism).
Assay [8] addresses T2, Coa-F (Coa 311-505). The description is as above.
Assay [9] has as its target T3, Coa-R0474-505 (recombinant protein). The description is as above.
The target of assay [10] is T4, Efb-N30-105. The assay is described as above.
In assay [11] the target is T6, Efb-A30-67 (Staphylococcus aureus strain Newman, UniProt P08515 1-218 = GST; A6QG59 30-67). The description is as above.
In assay [12] the target is T5, recombinant Efb-O (Efb 68-98). The description is as above.
For assay [13], the target named is T6, Efb-A30-67.

B1: FBE5-D9 (scFv, V domains shown)
VH: QVQLVESGGGVVQPGRSLRLSCAASGFTFSSYGMHWVRQAPGKGLEWVAVISYDGSNKYYADSVKGRFTISRDNSKNTLYLQMNSLRAEDTAVYYCAKNQEWLVPGYWGQGTLVTVSS
VL: QSALTQPASVSGSPGQSITISCTGTSSDVGGYNYVSWYQQHPGKAPKLMIYDVSNRPSGVSNRFSGSKSGNTASLTISGLQAEDEADYYCSSYTSSSTLVFGGGTKLTVL
As a reminder, the EC50 (read off the curve) is the midpoint of the concentration-response curve. In the case of B1, the “EC50 (read off the curve)” value was around 0.08 µg/mL in assay [1]; around 0.06 µg/mL in [2]; around 0.1 µg/mL in [3]; around 0.1 µg/mL in assay [4]; around 0.3 µg/mL in [5]. In assay [6], the binding result is given as “no binding (tested: 0.5 µg/ml)”. In addition, the Kd amounted to 0.779 nM in assay [7]; 0.536 nM in [8]; 1.14 nM in [9]; 1.31 nM in assay [10]; 4.48 nM in [11]; 2.68 nM in [12].

B2: FBE5-A5 (scFv, V domains shown)
VH: EVQLVQSGGGVVQPGRSLRLSCAASGFTFSSYGMHWVRQAPGKGLEWVAVISYDGSNKYYADSVKGRFTISRDNSKNTLYLQMNSLRAEDTAVYYCAKAGPDSYGYGMDVWGQGTTVTVSS
VL: not shown
As to B2, the entries for the “EC50 (read off the curve)” value in assay [3] and in assay [13] were around 0.2 µg/mL and around 0.4 µg/mL, respectively. Besides, in assay [6], the binding result is “no binding (tested: 0.5 µg/ml)”. For the same molecule, the Kd in assay [7] was determined as 5.34 nM; in assay [8], 1.47 nM; in assay [9], 1.86 nM; in assay [10] it was 3.24 nM; in assay [11], 4.38 nM; in assay [12], 4.27 nM.

B3: FBE5-A6 (scFv, V domains shown)
VH: QVQLVQSGGGVVQPGRSLRLSCAASGFTFSSYGMHWVRQAPGKGLEWVAVISYDGSNKYYADSVKGRFTISRDNSKNTLYLQMNSLRAEDTAVYYCAKAGDDDYGHYFDYWGQGTLVTVSS
VL: not shown
As for B3, in assay [3], the “EC50 (read off the curve)” value is around 0.2 µg/mL. In addition, the binding result in [6] is listed as “no binding (tested: 0.5 µg/ml)”. Moreover, the Kd in [7] was determined as 1.24 nM; in [8], 1.15 nM; in assay [9], 1.9 nM; in assay [10], 3.54 nM; in assay [11] it was 8.54 nM; in assay [12] it was 13 nM.

B4: FBE5-A12 (scFv, V domains shown)
VH: QVQLVESGGGVVQPGRSLRLSCAASGFTFSSYGMHWVRQAPGKGLEWVAVISYDGSNKYYADSVKGRFTISRDNSKNTLYLQMNSLRGEDTAVYYCAREGGWEPNGLDYWGQGTLVTVSS
VL: QAVLTQPPSASGTPGQRVTISCSGSDFNVGTNYVNWYQQLPGSAPKLLIYRNNQRPSGVPDRFSGSKSGTSATLGITGLQTGDEADYYCGTWDSSLSAEVFGGGTKLTVL
Consider B4, for which the “EC50 (read off the curve)” value in assay [1] was around 0.06 µg/mL. For the same molecule, the binding result in assay [6] is “no binding (tested: 0.5 µg/ml)”. The figures for the Kd in assay [7], in assay [8] and in assay [9] were 0.555 nM, 0.647 nM and 2.44 nM, respectively.

B5: FBE5-C1 (scFv, V domains shown)
VH: EVQLVETRGGVVQPGRSLRLSCAASGFTFSSYGMHWVRQAPGKGLEWVAVISYDGSNKYYADSVKGRFTISRDNSKNTLYLQMNSLRAEDTAVYYCAREGTYYYDSSGYYEGGFDYWGQGTLVTVSS
VL: QSVLTQPPSASGTPGQRVTISCSGSSSNIGSGPVNWYQQLPGTAPKLLIYSDTRRPSGIPDRLSGSKSGTSASLGISGLQSEDEADYYCAAWDDSLNGYAFGSGTKVTVL
B5: the binding result in assay [6] is recorded as “no binding (tested: 0.5 µg/ml)”. The Kd in assay [7] worked out at 1.13 nM; in assay [8], 4.59 nM; in assay [9], 24.3 nM; in assay [11], 40.9 nM.

B6: FBE5-D10 (scFv, V domains shown)
VH: QVQLVQSGGGVVQPGRSLRLSCAASGFTFSNYGMHWVRQAPGKGLEWVAVISYDGSNKYYADSVKGRFTISRDNSKNTLYLQMNSLRAEDTAVYYCAKDSREQWLAHWGQGTLVTVSS
VL: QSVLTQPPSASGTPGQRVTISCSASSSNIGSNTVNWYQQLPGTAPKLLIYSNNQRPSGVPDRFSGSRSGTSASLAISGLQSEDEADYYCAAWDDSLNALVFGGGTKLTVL
On to B6, for which the “EC50 (read off the curve)” value is around 0.1 µg/mL in assay [1]; around 0.09 µg/mL in assay [2]; around 0.08 µg/mL in assay [3]; around 0.2 µg/mL in assay [4]; around 0.1 µg/mL in assay [13]; around 0.3 µg/mL in assay [5]. For the same molecule, the binding result in [6] is on record as “no binding (tested: 0.5 µg/ml)”. Moreover, the Kd in assay [7] stood at 1.4 nM; in assay [8] it was 0.95 nM; in assay [9], 0.856 nM; in [10], 1.97 nM; in [11], 1.57 nM; in [12], 3.65 nM.

B7: FBE5-B9 (scFv, V domains shown)
VH: EVQLVESRGGVVQPGRSLRLSCAASGFTFSSYGMHWVRQAPGRGLEWVAVISYDGSNKYYADSVKGRFTISRDNSKNTLYLQMNGLRSDDTAVYYCARGGDDYGDYFDYWGQGTLVTVSS
VL: QSVLTQPPSVSAAPGQKVTISCSGSSSNIGNNYVSWYQQLPGTAPKLLIYDNNKRPSGIPDRFSGSKSGTSATLGITGLQTGDEADYYCGTWDSSLSAAVFGGGTKLTVL
Take B7: the “EC50 (read off the curve)” value in [3] was around 0.2 µg/mL. In addition, in [6], the binding result was “no binding (tested: 0.5 µg/ml)”. The Kd in assay [7] was found to be 1.74 nM; in [8] it was 1.12 nM; in assay [9], 2.19 nM; in [10], 3.45 nM; in assay [11], 25.9 nM; in [12] it was 8.27 nM.

B8: FBE5-F9 (scFv, V domains shown)
VH: QMQLVQSGGGVVQPGRSLRLSCAASGFTFSSYGMHWVRQAPGKGLEWVAVISYDGSNKYYADSVKGRFTISRDNSKNTLYLQMNSLRAEDTAVYYCAKEGDGDYGGVLDYWGQGTLVTVSS
VL: QSVLTQPPSVSAAPGQKVTISCSGSSSNIEKNYVSWYQQLPGTAPKLLIYDNNKRPSGIPDRFSGSKSGTSATLGITGLQTGDEADYYCGTWDSSLSAVVFGGGTKLTVL
As to B8, in assay [6], the binding result is listed as “no binding (tested: 0.5 µg/ml)”. In addition, the Kd in [7] is 2.85 nM; in assay [8], 1.63 nM; in assay [9], 3.16 nM; in assay [10], 6.01 nM; in assay [11], 21.5 nM; in assay [12] it was 7.97 nM.

B9: FBE5-C8 (scFv, V domains shown)
VH: QMQLVQSGGGVVQPGRSLRLSCAASGFIFSNYGMHWVRQAPGKGLEWVAVISYDGSNKYYADSVKGRFTISRDNSKNTLYLQMDSLRAEDTAVYYCAREGVGGDYGDLPTGPYYYYGMDVWGQGTTVTVSS
VL: QSVLTQPPSVSAAPGQKVTISCSGSSSNIGNNSVSWYQQLPGTAPKLLIYDNNKRPSGIPDRFSGSKSGTSATLGITGLQTGDEADYYCETWDSSLSAVVFGGGTKLTVL
Regarding B9, the binding result in assay [6] is given as “no binding (tested: 0.5 µg/ml)”. Further, the Kd in assay [7] was determined as 13.5 nM; in [8] it was 7 nM.
